The source of these data is article PMC2807882.

As usually defined, the stoichiometry N is a count of units in the complex or per binding partner. What is called Kd is the free concentration of one partner at which half of the binding sites on the other are occupied at equilibrium, for simple one-to-one binding. A high value points to weaker binding.

Assay [1] concerns the target T1, Mmp53 (mouse p53) with C-terminal FlAsH tag, labelled with FlAsH (mouse (Mus musculus)), P02340.
T1 chain: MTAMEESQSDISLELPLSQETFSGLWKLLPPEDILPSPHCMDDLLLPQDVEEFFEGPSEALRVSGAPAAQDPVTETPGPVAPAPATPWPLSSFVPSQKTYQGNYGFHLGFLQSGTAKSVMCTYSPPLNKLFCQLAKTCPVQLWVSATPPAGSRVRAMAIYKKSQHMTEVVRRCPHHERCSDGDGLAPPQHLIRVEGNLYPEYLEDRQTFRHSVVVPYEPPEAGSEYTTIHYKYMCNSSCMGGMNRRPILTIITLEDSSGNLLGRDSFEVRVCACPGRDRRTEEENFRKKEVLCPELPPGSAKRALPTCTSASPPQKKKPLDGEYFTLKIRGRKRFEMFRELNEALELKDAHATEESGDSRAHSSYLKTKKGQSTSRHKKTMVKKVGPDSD
As to the kind of experiment: AUC; sedimentation velocity with fluorescence detection, FlAsH-labelled protein at 5-500 nM; 150 mM NaCl, 25 mM phosphate pH 7.2, 10% glycerol, BSA 0.2 mg/mL, 1 mM beta-mercaptoethanol, 10°C; tetramer to dimers; Kd expressed in concentration of monomer. The note with it: remark: other sources report otherwise.

The target of assay [2] is T1, Mmp53 (mouse p53) with C-terminal FlAsH …. Nature of the assay: dimer-tetramer equilibrium. The note with it: natural protein, chains chain, FlAsH (from FlAsH-EDT2, Lumio Green) on the C-terminal CCPGCC tetra-cysteine tag, remark: other sources report otherwise.
The target of assay [3] is T2, Mus musculus p53, full length, with C-terminal FlAsH tag, FlAsH-labelled (Mus musculus), P02340.
T2 chain: T1 chain
As to the kind of experiment: AUC; sedimentation velocity with fluorescence detection, FlAsH-labelled protein at 5-500 nM (monomer); 150 mM NaCl, 25 mM phosphate pH 7.2, 10% glycerol, BSA 0.2 mg/mL, 1 mM β-mercaptoethanol, 10°C; tetramer to dimers; Kd expressed in concentration of monomer. The note with it: remark: other sources report otherwise.

B1: Mmp53 (mouse p53) with C-terminal FlAsH tag, labelled with FlAsH, P02340 1-390 (natural protein)
chain: T1 chain
modifications: here or on the partner: FlAsH (from FlAsH-EDT2, Lumio Green) on the C-terminal CCPGCC tetra-cysteine tag; FlAsH (from FlAsH-EDT2, Lumio Green) on the C-terminal CCPGCC tetra-cysteine tag
In assay [1], B1 came in with a fold weaker self-association (dimer-tetramer equilibrium) than Dmp53, Drp53 and ΔNp73β of 10 fold; a stoichiometry N of 4. In assay [2], this molecule showed a Kd of 17.2 nM.

B2: Mus musculus p53, full length, with C-terminal FlAsH tag, FlAsH-labelled, P02340 1-390 (natural protein)
chain: T1 chain
modifications: here or on the partner: FlAsH (from FlAsH-EDT2, an arsenic derivative of fluorescein) on the C-terminal CCPGCC tetra-cysteine tag; FlAsH (from FlAsH-EDT2, an arsenic derivative of fluorescein) on the C-terminal CCPGCC tetra-cysteine tag
Turning to B2, the dissociation constant (Kd) in assay [3] was 17.2 nM.
